Data published in the supplement of paper PMC7125110.
± gives the standard error. For some assays here: Fewer inactive variants are shown than the library holds.

B1: glmS ribozyme (parent)
chain: AUAAAAGCGCCAGAACUACAGAAAUGUAGUUGACGAGGAGGAGGUUUAUCGAAUUUUCGGCGGAUGCCUCCAAA

Assays:
Conditions in all cases: with glucosamine-6-phosphate
glucosamine-6-phosphate [1] = variants of: B1; test: kcat; higher = faster cleavage; RNA array
In short: (§1)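 A hybridised Cy3 probe tracked barcoded ribozyme variants, transcribed in situ by E. coli RNA polymerase on sequenced MiSeq chips, at 37 °C. The variants received 40 μM to 10 mM glucosamine-6-phosphate in HEPES/KCl/Mg(OAc)2 buffer. kobs came from decay fits and kcat and KM from weighted Michaelis–Menten fits.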

glucosamine-6-phosphate [2] = variants of: B1; test: self-cleavage kobs at 40 uM GlcN6P; higher = faster cleavage; RNA array
In short: as §1

glucosamine-6-phosphate [3] = variants of: B1; test: self-cleavage kobs at 160 uM GlcN6P; higher = faster cleavage; RNA array
In short: as §1

glucosamine-6-phosphate [4] = variants of: B1; test: self-cleavage kobs at 640 uM GlcN6P; higher = faster cleavage; RNA array
In short: as §1

glucosamine-6-phosphate [5] = variants of: B1; test: self-cleavage kobs at 2500 uM GlcN6P; higher = faster cleavage; RNA array
In short: as §1

glucosamine-6-phosphate [6] = variants of: B1; test: KM; higher = weaker cofactor use; RNA array
In short: as §1

glucosamine-6-phosphate [7] = variants of: B1; test: self-cleavage kobs at 10000 uM GlcN6P; higher = faster cleavage; RNA array
In short: as §1

Variant	kcat (glucosamine-6-phosphate [1]) [s⁻¹]	self-cleavage kobs at 40 uM GlcN6P (glucosamine-6-phosphate [2]) [s⁻¹]	self-cleavage kobs at 160 uM GlcN6P (glucosamine-6-phosphate [3]) [s⁻¹]	self-cleavage kobs at 640 uM GlcN6P (glucosamine-6-phosphate [4]) [s⁻¹]	self-cleavage kobs at 2500 uM GlcN6P (glucosamine-6-phosphate [5]) [s⁻¹]	KM (glucosamine-6-phosphate [6]) [µM]	self-cleavage kobs at 10000 uM GlcN6P (glucosamine-6-phosphate [7]) [s⁻¹]
AUAAAAGCGCCAGAACUACAGAAAUGUAGUUGACGAGGAGUAGGUUUAUCGAAGUUUCGGCGGAUGCCUCCAAA [G41U U54G]	0.000782 ± 0.00031	0.000133 ± 1.6e-05	0.000463 ± 0.00012	0.000458 ± 9.3e-05	0.00134 ± 0.00026	–	–
AUAAAAGCGCCAGAACUACAGAAAUGUAGUUGACGAGGAGUAGGUUUAUCGAAUUUUCGGCGGAUGCCUUCAAA [G41U C70U]	0.0009 ± 0.00017	0.000457 ± 3.9e-05	0.000709 ± 0.0001	0.000714 ± 0.00011	0.00131 ± 0.00021	–	–
AUAAAAGCGCCAGAACUACAGAAAUGUAGUUGACGAGGAGUAGGUUUAUCGAAUUUUCGGCGGAUGCCCCCAAA [G41U U69C]	4.52e-05 ± 7.4e-06	–	–	–	3.82e-05 ± 1.3e-05	–	–
AUAAAAGCGCCAGAACUACAGAAAUGUAGUUGACGAGGAGGGGGUUUAUCGAAUUUUCGGCGGAUGCCUGCAAA [A42G C70G]	0.000261 ± 5.1e-05	4.1e-05 ± 7.7e-06	8.07e-05 ± 1.4e-05	0.000216 ± 2.7e-05	0.000414 ± 6.1e-05	261 ± 120	0.000223 ± 2.5e-05
AUAAAAGCGCCAGAACUACAGAAAUGUAGUUGACGAGGAGGGGGUUUAUCGAAUUUUCGGCGGAUGCCUACAAA [A42G C70A]	0.000182 ± 4.2e-05	4.72e-05 ± 8.8e-06	6.35e-05 ± 1.1e-05	0.000154 ± 1.6e-05	0.000325 ± 3.7e-05	–	0.000155 ± 1.5e-05
AUAAAAGCGCCAGAACUACAGAAAUGUAGUUGACGAGGAGGGGCUUUAUCGAAUUAUCGGCGGAUGCCUUCAAA [A42G G44C U56A C70U]	< 1e-05	–	< 1e-05	–	< 1e-05	–	–
AUAAAAGCGCCAGAACUACAGAAAUGUAGUUGACGAGGAGUAGGUCUAUCGAAUUUUCGGCGGAUGCCUCCAAA [G41U U46C]	8.91e-05 ± 1.3e-06	–	–	4.34e-05 ± 1.9e-05	7.05e-05 ± 1.8e-05	676 ± 50	8.33e-05 ± 1.3e-05
AUAAAAGCGCCAGAACUACAGAAAUGUAGUUGACGAGGAGGCGGUAUAUCGAAUUUUCGGCGGAUGCCUCCAAA [A42C U46A]	< 1e-05	< 1e-05	–	< 1e-05	–	–	–
AUAAAAGCGCCAGAACUACAGAAAUGUAGUUGACGAGGAGGGGGUUUAUCGAAUUUUCGGCGGUUGCCUCCAAA [A42G A64U]	0.000207 ± 1.6e-05	–	–	–	0.000104 ± 2.3e-05	2880 ± 600	0.000158 ± 2.2e-05
AUAAAAGCGCCAGAACUACAGAAAUGUAGUUGACGAGGAGGGGGUUUAUCGAAUUUUCGGCGGAUGCAUCCAAA [A42G C68A]	1.2e-05 ± 4.3e-06	–	–	–	–	–	–
AUAAAAGCGCCAGAACUACAGAAAUGUAGUUGACGAGGAGGCGGUUUAUCGAAUUUUCGGCGGAUUCCUCCAAA [A42C G66U]	1.53e-05 ± 2e-06	–	–	–	–	–	–
AUAAAAGCGCCAGAACUACAGAAAUGUAGUUGACGAGGAGUAGGCUUAUCGAAUUUUCGGCGGAUGCCUCCAAA [G41U U45C]	0.000379 ± 2.8e-05	–	4.06e-05 ± 1.5e-05	0.000157 ± 4e-05	0.000273 ± 5.6e-05	1140 ± 210	0.000331 ± 4.7e-05
AUAAAAGCGCCAGAACUACAGAAAUGUAGUUGACGAGGAGUAGGUUUAUCGAAUUAUCGGCGGAUGCCUCCAAA [G41U U56A]	0.00219 ± 0.00072	3.42e-05 ± 8.2e-06	7.37e-05 ± 1.6e-05	0.000234 ± 3.5e-05	0.000769 ± 0.0001	4700 ± 2000	0.00153 ± 0.00029
AUAAAAGCGCCAGAACUACAGAAAUGUAGUUGACGAGGAGGCGGUUUAUCGAAUUUUCGGCGGAUGCCGCCAAA [A42C U69G]	0.00638 ± 0.0012	0.00174 ± 0.00021	0.00249 ± 0.00048	0.00686 ± 0.0012	0.00742 ± 0.0017	129 ± 51	0.00624 ± 0.00083
AUAAAAGCGCCAGAACUACAGAAAUGUAGUUGACGAGGAGGGGGUUUAUCGAAUUUUAGGCGGAUGCCUCCAAA [A42G C58A]	0.00048 ± 3.7e-05	–	–	9.53e-05 ± 3.4e-05	0.000279 ± 0.00013	2480 ± 390	0.000379 ± 9.4e-05
AUAAAAGCGCCAGAACUACAGAAAUGUAGUUGACGAGGAGGGGGUUUAUCGACUUUUCGGCGGAUGCCUCCAAA [A42G A53C]	0.00933 ± 0.0027	0.000286 ± 5.1e-05	0.000666 ± 0.00018	0.00271 ± 0.00065	0.0112 ± 0.0032	1540 ± 610	0.0076 ± 0.0015
